From PMC5444442, “Flagellin peptide flg22 gains access to long-distance trafficking in Arabidopsis via its receptor, FLS2” (Journal of Experimental Botany, 2017)
Peptide text beside a SMILES is read from it. * marks the point of attachment. 5TAMRA = CN(C)c1ccc2c(c1)Oc1cc(N(C)C)ccc1C21OC(=O)c2cc(C(=O)*)ccc21; 5FAM = O=C1OC2(c3ccc(O)cc3Oc3cc(O)ccc32)c2ccc(C(=O)*)cc21; Cbz = O=C(OCc1ccccc1)*

Key:
Arabidopsis leaf discs = assay: Subcellular localization, uptake and accumulation of flg22 in leaf discs; assay type: cell-based, Arabidopsis thaliana; settings: for non-specific uptake in presence of active flg22: Col leaf discs floated overnight on 2 μM FAM–scrambled peptide or 2 μM fluorescein mixed with 1 μM TAMRA–flg22 or 2 μM flg22, n≥8; for number of foci overlapping with FM4-64 / total number of green (Ff22) fluorescent foci: 18 picture areas (20 μm × 20 μm); for initial (up to 1.5 h) uptake/binding: leaf discs floated on 5 μM peptide, confocal fluorescence
Method: Leaf discs were floated (abaxial side down) on 1–5 μM TAMRA–flg22 or 5–10 μM FAM–flg22 solution (in water) at room temperature for the indicated time (lower concentrations were used for overnight treatments). Inhibitors that affect endocytosis, MG132 (Sigma-Aldrich, 50 μM) or 2,3-butanedione monoxime (BDM; Sigma-Aldrich, 50 mM) were added at the same time as the peptides. FM4-64 (Invitrogen, 6–8 μM) or 2′,7′-bis-(2-carboxyethyl)-5-(and-6)-carboxyfluorescein (BCECF)-AM (cleaved by an endogenous plant esterase to BCECF, Invitrogen, 20–40 μM) mixed with peptide solution was vacuum infiltrated for 2 min into leaf discs ([Kang et al., 2014]) prior to incubation (floating on peptide/dye solution) for the indicated time. In some experiments FAM–Y-flg22 was used with results similar to FAM–flg22.
For experiments with mixed peptides, leaf discs were floated for the indicated time on 2 μM FAM–flg22, FAM–scrambled peptide or fluorescein mixed with 1 μM TAMRA–flg22. In all experiments, leaf discs were washed after treatment by gently shaking for several minutes in water and the abaxial side was imaged by confocal or epifluorescence microscopy (see ‘Microscopy’). Fluorescence intensity profiles were generated with ImageJ, as in [Spallek et al., (2013)] and [Bozkurt et al. (2015)] (see ‘Data analysis’).
Confocal images were obtained using a Zeiss LSM710 laser-scanning confocal microscope (Zeiss, Germany) as described in [Kang et al. (2014)]. Fluorescence was visualized as follows: GFP/FAM/fluorescein/BCECF excitation (ex) 488 nm/emission (em) 495–545 nm; TAMRA ex 561 nm/em 566–620 nm; FM4-64: ex 561 nm/em 686–758 nm. Green and red fluorescence was acquired for the same field using a sequential acquisition mode.
Fluorescence intensity profiles were generated with ImageJ (http://rsb.info.nih.gov/ij, last accessed 6 April 2017) using RGB Profiler and Color Profiler. Fluorescent puncta were manually counted in 20 μm × 20 μm confocal image areas as in [Irani et al. (2012)] and [Chaparro-Garcia et al., (2015)] and shown as a fraction ([Irani et al., 2012]; [Choi et al., 2013]). […]

Arabidopsis plants [1] = assay: Long-distance transport to distal tissues after infiltration of fluorescent peptide; assay type: in vivo, Arabidopsis thaliana; settings: for detection within cells in distal part of infiltrated leaf: 10 μM infiltrated, 2 h, confocal microscopy
Method: A 5–10 μM water solution of FAM–flg22 was pressure infiltrated with a 1 ml blunt syringe into a part or all of one leaf of 4-week-old soil-grown plants and distal tissues were examined by epifluorescence and confocal microscopy after 2 and 16 h, respectively. FAM–Y-flg22 was used in some experiments with similar results.
(§1) [^14C]sucrose radioactivity was quantified in a scintillation counter.

[2] = system: detached Arabidopsis leaf; assay: Movement across a leaf blade; settings: 1 h, epifluorescence
Method: A 5 μl drop of water solution of 10 μM FAM–flg22 or FAM–scrambled peptide was placed on the abaxial side of a detached Arabidopsis leaf in a humid chamber. […] Excess peptide was removed after 0.5 h, leaf surface was washed with water and epifluorescence images of the adaxial side were taken during the next 30 min (0.5–1 h after treatment).
The amount of peptide in plant cells was measured as total fluorescence per view field (integrated density) as in [Martins et al. (2015)], and was quantified with ImageJ in each channel in confocal and epifluorescence images. To allow comparison between experiments, fluorescence was calculated as a percentage of the signal in Col treated with TAMRA–flg22 or FAM–flg22. ^125I radioactivity in local and distal tissues was quantified from autoradiographs using a Cyclone Phosphorimager (Perkin Elmer) or in a scintillation counter (Packard Quantum Cobra D5002) and shown as percentage of total radioactivity in a plant. [^14C]sucrose radioactivity was quantified in a scintillation counter. Data from multiple experiments were analysed together using Prism software (GraphPad) (one-way ANOVA followed by Tukey’s test, or the t-test).

Arabidopsis plants [3] = assay: Long-distance transport after surface application of fluorescent peptide; assay type: in vivo, Arabidopsis thaliana; settings: 1 d
Method: We applied 10–20 μl of 5 μM TAMRA–flg22 (without or with inhibitors: 50 μM MG132 or 50 mM BDM) to a filter paper disc placed on the adaxial side of one leaf of in vitro-grown Arabidopsis plants and distal tissues were imaged by confocal microscopy after 1 d. For experiments with mixed peptides, 5 μM TAMRA–flg22 + 10 μM FAM–scrambled peptides were used.
as §1

Arabidopsis plants [4] = assay: Long-distance transport after surface application of radiolabeled peptide; assay type: in vivo, Arabidopsis thaliana; settings: control; 1 μl droplet of Na125I (1 × 10^6 cpm) on abaxial side of one leaf; 3 h; five plants, three experiments, P=0.7
Method: We applied 0.5–1 µM (specific activity 17 µCi µg^–1) ^125I-Y-flg22 or ^125I-Y-scrambled peptide in 10 mM MES pH 5.7 with 0.01% Tween-20 as a 1 µl droplet to the abaxial side of one mature leaf of 4-week-old soil-grown Arabidopsis plants and incubated for 3 h. For the control, 1 µl of 1.8 µM Na^125I (2.2 µCi µg^–1) in 5 mM NaOH–0.5 mM NaHSO2 (to prevent volatilization) with 0.005% Tween-20 was applied in the same way. Whole plants were sealed in plastic (Pinnacle Cover-All, Total Care), additionally contained in a plastic bag, and exposed for 5 d to phosphor screens for autoradiography.
as §1

[5] = Col leaf discs, 5–10 μM peptide with FM4-64 (6–8 μM), 1–2 h, confocal
[6] = fls2 leaf discs, 5–10 μM peptide with FM4-64, 1–2 h, confocal
[7] = Ws (lacks FLS2) leaf discs floated on 2 μM peptide 1–2 h, 16 picture areas (20 μm × 20 μm), confocal
[8] = Ws/FLS2–GFP leaf discs floated on 2 μM peptide 1–2 h, 16 picture areas (20 μm × 20 μm), confocal

CC[C@H](C)[C@H](NC(=O)CNC(=O)c1ccc2c(c1)C(=O)OC21c2ccc(O)cc2Oc2cc(O)ccc21)C(=O)N[C@H](C(=O)N[C@@H](C)C(=O)N[C@@H](CO)C(=O)N[C@@H](CCCCN)C(=O)N[C@@H](C)C(=O)N[C@@H](CC(C)C)C(=O)NCC(=O)N[C@@H](C)C(=O)N[C@@H](CC(=O)O)C(=O)N[C@@H](CC(C)C)C(=O)N[C@@H](CCCNC(=N)N)C(=O)N[C@@H](CCCNC(=N)N)C(=O)N[C@H](C(=O)N[C@@H](CC(N)=O)C(=O)N[C@@H](CCC(N)=O)C(=O)N[C@@H](CO)C(=O)N[C@@H](C)C(=O)N[C@@H](CO)C(=O)N[C@@H](CCC(N)=O)C(=O)N[C@@H](CC(=O)O)C(=O)O)[C@@H](C)CC)[C@@H](C)O [FAM–scrambled peptide] (5FAM-GITASKALGADLRRINQSASQD-OH)
non-specific uptake in presence of active flg22 (Arabidopsis leaf discs; confocal): not observed | detection within cells in distal part of infiltrated leaf (Arabidopsis plants [1]; Col): not detected within cells

CC[C@H](C)[C@H](NC(=O)[C@H](CCC(N)=O)NC(=O)[C@H](CC(C)C)NC(=O)CNC(=O)[C@H](C)NC(=O)[C@H](C)NC(=O)[C@H](CC(=O)O)NC(=O)[C@H](CC(=O)O)NC(=O)[C@H](CCCCN)NC(=O)[C@H](C)NC(=O)[C@H](CO)NC(=O)[C@H](CC(N)=O)NC(=O)[C@@H](NC(=O)[C@H](CCCNC(=N)N)NC(=O)[C@H](CO)NC(=O)CNC(=O)[C@@H](NC(=O)[C@H](CO)NC(=O)[C@H](CC(C)C)NC(=O)[C@H](CCCNC(=N)N)NC(=O)[C@H](CCC(N)=O)NC(=O)c1ccc2c(c1)C(=O)OC21c2ccc(O)cc2Oc2cc(O)ccc21)[C@@H](C)O)[C@@H](C)CC)C(=O)N[C@@H](C)C(=O)O [FAM–flg22] (5FAM-QRLSTGSRINSAKDDAAGLQIA-OH)
detection on adaxial side of leaf after application to abaxial side ([2]; Col detached leaf, 5 μl drop of 10 μM peptide, three experiments, n≥5): detected | mobility across a leaf blade ([2]; fls2 and bak1 mutants, 10 μM peptide drop): reduced | number of foci overlapping with FM4-64 (Arabidopsis leaf discs; [5]): 212 | total number of green (Ff22) fluorescent foci (Arabidopsis leaf discs; [5]): 217 | co-localization with endocytic dye FM4-64 (Arabidopsis leaf discs; Col leaves, 5–10 μM peptide, 1–2 h incubation, confocal): co-localized with a subset of vesicles and MVBs | number of foci overlapping with FM4-64 (Arabidopsis leaf discs; [6]): 2 | total number of green (Ff22) fluorescent foci (Arabidopsis leaf discs; [6]): 10 | signal in cells (Arabidopsis leaf discs; fls2 mutant, 5–10 μM peptide, 1–2 h incubation, confocal): not visible | detection within cells in distal part of infiltrated leaf (Arabidopsis plants [1]; Col): present within vascular cells | detection in distal orthostichous leaves (Arabidopsis plants [1]; Col, 5–10 μM infiltrated into part of one leaf of soil-grown plants, 16 h, epifluorescence): detected | detection within cells in distal part of infiltrated leaf (Arabidopsis plants [1]; fls2): not detected within cells | detection in distal leaves (Arabidopsis plants [1]; fls2, 5–10 μM infiltrated into one leaf, 16 h, epifluorescence): not observed

CC(C)C[C@@H](C=O)NC(=O)[C@H](CC(C)C)NC(=O)[C@H](CC(C)C)NC(=O)OCc1ccccc1 [MG132, reference compound] (Cbz-Leu-Leu-Leu-aldehyde)
effect of inhibitor on initial binding/uptake of TAMRA–flg22 (Arabidopsis leaf discs; Col leaf discs, 5 μM TAMRA–flg22 with 50 μM MG132 or 50 mM BDM added simultaneously, 1–2 h): did not prevent initial peptide binding/uptake | effect of inhibitor on overnight accumulation of TAMRA–flg22 in vacuoles (Arabidopsis leaf discs; Col leaf discs, 1–2 μM TAMRA–flg22 with 50 μM MG132 or 50 mM BDM, overnight): did not accumulate in vacuoles | effect of inhibitor on long-distance movement of TAMRA–flg22 (Arabidopsis plants [3]; Col, 5 μM TAMRA–flg22 with 50 μM MG132 or 50 mM BDM on filter paper disc): prevented

[125I-].[Na+] [Na^125I]
movement to distal leaves, Col versus fls2 (Arabidopsis plants [4]): the same in Col and fls2

CC[C@H](C)[C@H](NC(=O)[C@H](CCC(N)=O)NC(=O)[C@H](CC(C)C)NC(=O)CNC(=O)[C@H](C)NC(=O)[C@H](C)NC(=O)[C@H](CC(=O)O)NC(=O)[C@H](CC(=O)O)NC(=O)[C@H](CCCCN)NC(=O)[C@H](C)NC(=O)[C@H](CO)NC(=O)[C@H](CC(N)=O)NC(=O)[C@@H](NC(=O)[C@H](CCCNC(=N)N)NC(=O)[C@H](CO)NC(=O)CNC(=O)[C@@H](NC(=O)[C@H](CO)NC(=O)[C@H](CC(C)C)NC(=O)[C@H](CCCNC(=N)N)NC(=O)[C@H](CCC(N)=O)NC(=O)c1ccc2c(c1)C(=O)OC21c2ccc(N(C)C)cc2Oc2cc(N(C)C)ccc21)[C@@H](C)O)[C@@H](C)CC)C(=O)N[C@@H](C)C(=O)O [TAMRA–flg22] (5TAMRA-QRLSTGSRINSAKDDAAGLQIA-OH)
overnight accumulation in plant cells (Arabidopsis leaf discs; Col leaf discs, 1 μM peptide with vacuolar dye BCECF (20 μM), overnight, confocal): accumulated in central vacuoles | number of overlapping red and green foci (Arabidopsis leaf discs; [7]): 0 | total number of red (Tf22) fluorescent foci (Arabidopsis leaf discs; [7]): 5 | number of foci overlapping with FLS2–GFP (Arabidopsis leaf discs; [8]): 143 | total number of red (Tf22) fluorescent foci (Arabidopsis leaf discs; [8]): 161 | internalization into vesicles (Arabidopsis leaf discs; Ws/FLS2–GFP leaf discs, 2 μM peptide, 1–2 h, confocal): found together in vesicles | initial (up to 1.5 h) uptake/binding (Arabidopsis leaf discs; bak1 versus Col): not highly affected | overnight accumulation in plant cells (Arabidopsis leaf discs; fls2 and bak1 versus Col, leaf discs floated on 1–2 μM peptide overnight, confocal, P<0.0002, n≥7): inhibited | initial (up to 1.5 h) uptake/binding (Arabidopsis leaf discs; fls2 versus Col, P<0.05, n≥6): reduced | fluorescence signal inside cells (Arabidopsis leaf discs; non-transgenic wild-type Ws control or Col fls2, 1–2 h, confocal): No fluorescence signal was observed inside the cells | detection in local (treated) tissue (Arabidopsis plants [3]; Col, 5 μM on filter paper disc on adaxial side of one leaf of in vitro-grown plants, confocal): detected preferentially in the vascular region | detection in distal leaves and flowers (Arabidopsis plants [3]; Col, 5 μM on filter paper disc on one leaf of in vitro-grown plants, confocal): detected | movement to distal organs from mixture of peptides (Arabidopsis plants [3]; WT Col, 5 μM TAMRA–flg22 + 10 μM FAM–scrambled peptide on filter paper disc, confocal, n=6): moved, to a significant extent

O=C1OC2(c3ccc(O)cc3Oc3cc(O)ccc32)c2ccccc21 [fluorescein, reference compound]
non-specific uptake in presence of active flg22 (Arabidopsis leaf discs; confocal): did not induce uptake
